{
  "source": "FireProtDB (doi:10.1016/j.bpc.2008.08.008)",
  "details": "Capra hircus, pH 6, Cacodylate 0.03 M, Potassium chloride 0.1 M, reversible: Yes; for denaturant midpoint (higher = more stable) / unfolding free energy: 25 °C, GdnHCl",
  "note": "“And” between values parts separate entries of the source, which are not always exact repeats. Equal values may be shown once.",
  "data": [
    {"substance": "wild type, Q3LUG9", "values": [
      {"measurement": "denaturant midpoint (higher = more stable)", "setting": "Absorbance", "result": "2.7 M and 2.6 M"},
      {"measurement": "unfolding free energy", "setting": "Absorbance", "result": "39.7 kJ/mol and 39.3 kJ/mol"},
      {"measurement": "denaturant midpoint (higher = more stable)", "setting": "CD", "result": "2.5 M and 2.6 M"},
      {"measurement": "unfolding free energy", "setting": "CD", "result": "38.9 kJ/mol and 40.1 kJ/mol"},
      {"measurement": "heat capacity change of unfolding", "setting": "Thermal, CD", "result": 1.29, "unit": "kcal/mol/K"}
    ]}
  ]
}
